Publication PMC6420652 (2019)

B1: antizyme-mRuby2 (antizyme with a C-terminal mRuby2 tag) (natural protein)
chain: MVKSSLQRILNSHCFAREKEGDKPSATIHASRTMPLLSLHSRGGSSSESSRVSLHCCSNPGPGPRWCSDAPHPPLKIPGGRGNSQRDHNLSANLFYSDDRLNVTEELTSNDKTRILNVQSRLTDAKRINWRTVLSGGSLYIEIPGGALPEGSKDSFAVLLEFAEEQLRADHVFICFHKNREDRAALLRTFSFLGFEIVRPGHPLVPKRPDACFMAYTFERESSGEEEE
B2: AZIN with a C-terminal Clover (GFP) tag (natural protein)
chain: MKGFIDDANYSVGLLDEGTNLGNVIDNYVYEHTLTGKNAFFVGDLGKIVKKHSQWQNVVAQIKPFYTVKCNSAPAVLEILAALGTGFACSSKNEMALVQELGVPPENIIYISPCKQVSQIKYAAKVGVNILTCDNEIELKKIARNHPNAKVLLHIATEDNIGGEEGNMKFGTTLKNCRHLLECAKELDVQIIGVKFHVSSACKESQVYVHALSDARCVFDMAGEIGFTMNMLDIGGGFTGTEFQLEEVNHVISPLLDIYFPEGSGVKIISEPGSYYVSSAFTLAVNIIAKKVVENDKFPSGVEKTGSDEPAFMYYMNDGVYGSFASKLSEDLNTIPEVHKKYKEDEPLFTSSLWGPSCDELDQIVESCLLPELNVGDWLIFDNMGADSFHEPSAFNDFQRPAIYYMMSFSDWYEMQDAGITSDSMMKNFFFVPSCIQLSQEDSFSAEA
B3: Clover-AZIN (antizyme inhibitor with an N-terminal Clover tag) (natural protein)
chain: B2 chain

How the values were obtained:
Experiment in all cases: FRET
Clover-AZIN A325N = Clover-AZIN A325N (human, UniProt O14977 1-448, A325N)
[1] = biological target: B1
[2] = biological target: antizyme with an N-terminal mRuby2 tag (human, UniProt P54368 1-228)
antizyme with an N-terminal mRuby2 tag, sequence (P54368 whole entry): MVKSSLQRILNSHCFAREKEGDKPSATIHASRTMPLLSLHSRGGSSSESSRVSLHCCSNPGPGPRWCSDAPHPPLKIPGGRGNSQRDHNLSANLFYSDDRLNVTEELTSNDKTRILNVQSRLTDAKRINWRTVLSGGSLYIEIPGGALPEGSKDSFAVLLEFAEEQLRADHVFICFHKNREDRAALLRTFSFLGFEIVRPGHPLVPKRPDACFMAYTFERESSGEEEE

Binder | Kd (Clover-AZIN A325N) | Kd [1] | Kd [2]
B1 | 35.6 nM |  | 
B2 |  | 29 nM | 89 nM
B3 |  |  | 80 nM
